Biological target: T1, SmcH-CC100 (Bacillus subtilis, UniProt P51834 400-774)
T1 sequence: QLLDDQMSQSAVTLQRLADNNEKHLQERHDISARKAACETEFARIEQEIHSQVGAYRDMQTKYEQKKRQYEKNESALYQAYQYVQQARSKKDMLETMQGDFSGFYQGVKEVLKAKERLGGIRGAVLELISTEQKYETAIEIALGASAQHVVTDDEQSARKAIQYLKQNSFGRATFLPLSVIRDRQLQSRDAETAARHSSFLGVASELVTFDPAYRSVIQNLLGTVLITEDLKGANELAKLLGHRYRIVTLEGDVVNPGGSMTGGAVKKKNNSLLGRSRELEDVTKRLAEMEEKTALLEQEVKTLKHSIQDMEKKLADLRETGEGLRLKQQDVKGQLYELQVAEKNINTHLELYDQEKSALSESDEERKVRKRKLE
Assay: fluorescence anisotropy

B1: 40 bp random-sequence dsDNA (dsDNA)
DNA 1: TTAGTTGTTCGTAGTGCTCGTCTGGCTCTGGATTACCCGC
DNA 2: GCGGGTAATCCAGAGCCAGACGAGCACTACGAACAACTAA
  binding result: binds

From doi:10.1101/495820
